Positions count from the first letter of the chain named. Read-outs that look alike come from different tables or passages of the source.

For orientation: Kd means the concentration at which binding is half-saturated. A higher Kd goes with lower affinity.

Experiment [1] has as its target T1, SARS-CoV-2 S (ancestral), C-terminally truncated, expressed on 293T cells (SARS-CoV-2 (ancestral, Wuhan-Hu-1), UniProt P0DTC2). Put plainly: flow cytometry on cells. The conditions noted are these: one partner purified.
For experiment [2], the target named is T1, SARS-CoV-2 S (ancestral), C-terminally …. The experiment can be described thus: cell-based or functional assay.
The target of experiment [3] is SD1-RBD of SARS-CoV-2 S (ancestral), aa 319-591 (SARS-CoV-2, ancestral (Wuhan-Hu-1; …, UniProt P0DTC2). Put plainly: SPR. Conditions: both partners purified.
In experiment [4] the target is T2, SARS-CoV-2 fusion peptide (FP) coldspot peptide, 812-831 (SARS-CoV-2 (ancestral), biotin-Ahx at the N-terminus; C-terminal amidation).
Experiment [5] concerns the target SARS-CoV-2 S-2P ectodomain trimer (ancestral) (SARS-CoV-2 (ancestral, MN908947), stabilised).
In experiment [6] the target is T2, SARS-CoV-2 fusion peptide (FP) coldspot …. Put plainly: crystal structure. Conditions: both partners purified.

B1: hr2.016 monoclonal antibody (IgG) (antibody, V domains shown)
VH: EVQLLESGGGLVQPGGSLRLSCAASGFMFSKYAMTWVRQTPGKGLEWVSVISGGGGSTYYADSVKGRFTISRDNSKNTLYLQMNSLRAEDTAVYYCAKLLVVFVIDYWGQGALVTVSS
VL: EIVLTQSPGTLSLSPGERATLFCRASQSVSSNLAWYQQKPGRAPRLLISGASSRATGIPDRFSGSGSGTDFTLTISRLEPEDFAVYYCQQYGSSPPTFGQGTKVEIK
For the molecule B1, the “fold increase of binding (gMFI) with soluble ACE2” value (“fold increase of binding (gMFI)” below) in experiment [1] was 2.3 fold. In addition, in experiment [2], the “IC50 of neutralisation of SARS-CoV-2 pseudovirus” value (shortened to “IC50”) was determined as 0.01 µg/mL.

B2: sd1.040 monoclonal antibody (IgG) (antibody, V domains shown)
VH: QVQLVQSGAEVKKPGASVKVSCKASGYTFTSFYIHWVRQAPGQGLEWMGIIDPSGGSTSYPQKFQGRVTMTRDTSTSTVYMDLSSLRSEDTAVYYCTRDGSAGDNSWFDPWGQGTLVTVSS
VL: not shown
Turning to B2, the “IC50” value in experiment [2] was 0.245 µg/mL.

B3: sd1.040 Fab (Fab, V domains shown)
VH: B2 VH
VL: not shown
Take B3: the Kd in experiment [3] was found to be 4.2 nM.

B4: fp.008 (antibody, V domains shown)
VH: VQLVESGGGVVQPGRSLRLSCRASGFRFNNYAMHWVRQAPGKGLEWVAIISYEARNEKYAASVKGRFSISRDNAKNTLYLQMNSLRPEDTAIYYCARDVFLSDYDQSGYDVTRGGFDYWGQGTLVTVSS
VL: EIVMTQSPATLSVSPGESATLSCRASQSVSSSLAWYQHKFGQAPRLLIYGASTRATGIPDRFSGSGSGMEFTLTISSLQSEDVAIYYCQQYGDWPLVTFGGGTKVEIK
Regarding B4, the binding result in experiment [4] and in experiment [5] was “binds” throughout.

B5: fp.006 Fab (Fab, V domains shown)
VH: EVQLVESGGGVVQPGGSLRLSCAASGFNFNNYALHWVRQAPGKGLEWVAIISYEARNKKYGVSVMGRFSISRDNSKSIMYLEMNSLRVEDTGVYYCARDLFLSDYDRSGYDPTRGGFDHWGQGTLVTVSS
VL: B4 VL with S18R, K39R, Y49S, D60G, M69T, I85V
Regarding B5, the binding result in experiment [6] is “binds”.

B6: fp.006 monoclonal antibody (IgG) (antibody, V domains shown)
VH: B5 VH
VL: B4 VL with S18R, K39R, Y49S, D60G, M69T, I85V
Take B6: the “fold increase of binding (gMFI)” value in experiment [1] was found to be 5.8 fold. Also, the “IC50” value in experiment [2] was determined as 0.737 µg/mL.

B7: fp.009 (antibody, V domains shown)
VH: VQLVESGGGVVQPGTSLTLSCEASGFTFSNYAMHWVRQAPGKGLEWVAIISFDTRNKKFAGSVQGRFSISRDNAKNSIYLQMNNLRPEDTGIYYCARDVFLSDYDSRGFDRTRGGFDYWGQGTLVTVSS
VL: B4 VL with S18K, Q27E, S30G, H38Q, F40L, D60A, M69A, V83F, V97L
B7: the binding result in experiment [4] and in experiment [5] was “binds” throughout.

B8: fp.007 monoclonal antibody (IgG) (antibody, V domains shown)
VH: EVQLVESGGGLVKPGGSLRLSCAGTGFIFSDAWMTWVRQAPGKGLEWVGRIKSKADGGTTDYAAPVKGRFTISRDDSKNTLYLEINSLKTEDTAVYYCTTGRSRYCIGAVCYYFDHWGQGTLVTVSS
VL: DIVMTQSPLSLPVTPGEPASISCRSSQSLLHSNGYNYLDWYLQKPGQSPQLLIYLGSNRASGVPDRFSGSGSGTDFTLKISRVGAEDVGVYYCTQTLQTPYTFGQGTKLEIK
As for B8, the binding result in experiment [1] is given as “binds”.

B9: hr2.023 monoclonal antibody (IgG) (antibody, V domains shown)
VH: QVQLVQSGAEVKKPGASVKVSCRASENIFSDSYLHWVRQAPGQGLEWMGIITPSGDKTFYAQQFQGRLTMTRDTPTNTLHMDLRGLTSADTAIYYCARQATKGGWDYWGQGTLVTVSS
VL: EIVLTQSPGTLSLSPGESATLSCRASQSVTRNYLAWYQQQPGQAPRLLIYGASNRATGVPDRFSGSGSGTDFTLTISRLEPEDFAVYYCQQYGSSPPTFIFGPGTKVDIK
Take B9: the “fold increase of binding (gMFI)” value in experiment [1] worked out at 2.4 fold.
